These results are taken from article PMC9810211.

The assay has as its target SeTau-405 fluorescently labeled BOA (Burkholderia oklahomensis). Description: other fluorescence titration.

In turn, “SARS-CoV-2 Spike protein (Hexapro S) (from UniProt P0DTC2) (natural protein)” registered a half-saturation point of 30 to 60 nM.
